T1: HERV-K env protein expressed endogenously by human cancer cell lines (human endogenous retrovirus K)
T1 chain: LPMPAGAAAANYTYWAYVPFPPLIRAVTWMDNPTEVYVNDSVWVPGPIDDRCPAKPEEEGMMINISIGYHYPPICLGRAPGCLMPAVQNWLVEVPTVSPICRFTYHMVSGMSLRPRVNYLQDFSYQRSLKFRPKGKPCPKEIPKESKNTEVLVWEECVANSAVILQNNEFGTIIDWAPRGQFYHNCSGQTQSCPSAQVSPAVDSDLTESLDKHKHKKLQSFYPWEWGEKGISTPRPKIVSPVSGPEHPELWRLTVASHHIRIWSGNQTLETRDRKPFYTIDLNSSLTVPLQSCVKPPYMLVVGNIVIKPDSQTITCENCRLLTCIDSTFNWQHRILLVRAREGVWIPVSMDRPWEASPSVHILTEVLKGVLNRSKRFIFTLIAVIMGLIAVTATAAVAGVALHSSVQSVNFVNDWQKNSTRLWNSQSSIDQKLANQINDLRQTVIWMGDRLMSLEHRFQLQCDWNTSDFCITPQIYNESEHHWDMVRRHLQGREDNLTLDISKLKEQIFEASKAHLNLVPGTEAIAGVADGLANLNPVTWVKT

B1: anti-HERV-K env monoclonal antibody 6H5 (antibody, V domains shown)
VH: MAQVKLQQSGPDLVKPGASVKISCKASGYSFTGYYMHWVKQSHGKSLEWIGRVNPNSGGTSYNQKFKDKAILTVDKSSSTAYMELRSLTSEDSAVYYCARSKGNYFYAMDY
VL: ASLAVSLGQRATISCRASESVDSHGTSFMHWYQQKPGQPPKFLIYRASNLESGIPARFSGSGSRTDFTLTINPVETDDVAIYYCQQSNEDPPTFGGGTKLEIK

Experiments:
[1] = target: HERV-K recombinant fusion protein K10Q18 (K-SU in pQE30, N-terminal 6-His) (human endogenous retrovirus K); experiment: flow cytometry on dendritic cells pulsed with the protein
[2] = target: T1, HERV-K env protein expressed …; experiment: cell-based or functional assay

Molecule | percent of DCs positive [1] [%] | IC50, cytotoxicity toward MCF-7 breast cancer cells (72 h, crystal violet) [2] [nM] | IC50, cytotoxicity toward MDA-MB-231 breast cancer cells (72 h, crystal violet) [2] [nM]
anti-RGS monoclonal antibody (Qiagen) | > 70 |  | 
B1 |  | 51.7 | 6.6
